Molecular target: the molecule itself
Test: cryo-EM structure; single-particle cryo-EM of the native TMC-2 complex isolated from worms (anti-FLAG affinity, SEC, GDN, 1 mM CaCl2); cis-dimeric particles selected

B1: TMC-2 (transmembrane channel-like protein 2), native, tagged with mVenus-3xFLAG at the endogenous locus (natural protein, C. elegans, UniProt Q11069 1-1203, looked up)
chain: MPKSGAHQPLVRHDTDDGGETGQSVKSLADVSEEEIDSRMSRRSSVIADLLSLFRRSSSVLVRPHTRLGNPNFDDDDDEFDEEDDKEASKDRILKKIQQKKEIIQKLRGQPWYMKRKRRTLKVAQKHLQQQEAKVSKARLYKAEAGRRLTQASRWLDNLKIYLIPWEAKIRKIESHFGSVVSSYFTFHRWVLGVNITITFIMCMFVVIPEWLADSRTQFGDDRYNKTKAIKVMPPAVRARADELSTVWDFGGYFQYSLLFYGFYSKETFFGETIKYRVPVAYFFCNIFILGFSLFIILRKMAANNRRGTLSSGKTQQYLFNWKAFTGWDYTIGNPETAGNVYMANVIKFREAINDDKQKPSDKHPWIRFVARVLTNLFICAMYVFSIWAIMQCGTLKGEHFFAQNATAITISLITLVFPNIFDLLGKIEKLHPRNALRFQLGRVLVLYILNYYTLIYSLMLQLEHLQKEKNASDNPISALGHPGDAIGRTIRETVLPRYPVDNNPHTYYSYAPVTTTPIPATSSWTTVLPDFGPFGVYNPKASVTKDDTVFSSPVVETHMFGPNSDWNETTVNAASPTGATTRASLRMSQGGLCWETIIGQEITKLVTMDLYMTVASIFLIDFLRGLACRYLNLYWPWDLERTFPEYGEFKVAENVLHLVNNQGMIWLGLFFVPLLPMLNNIKLIILMYIRGWAAMTCNVPASQIFRASRSSNFFFALLILFLFLCTLPVGFVIASKTPSKSCGPFGNQSFFYSVITDVLHENLDKTLVNGIKYSLSPGIIIPVLVLLSLVIYFLIAMVTGLSQANQDLSFQLMVERTEEKKKIFELAGGKKKKSKDNTFGKQKPKQLLPPPTKGVSSDDDSQHNRSTAKSVSGRQFVPSLGSVSEVDHSTGEEQSSDSESTTSSLPPKLSLRQRFLVCIGWADPNKYGRHDDIEMEEGGGRLRELSTGSETDSDDEDSEKSNRDMSYRTAIQSFDQNSQSASASSSKSTTTAPSNSEMRIEITENPLHTYITPLRIEKKSSASSSSSSHQPSSSIEKQAARRLLQPISTTHNIRYGVATVENSSQDPTRPPSTDDSLGDPALHEPLWANLNPHSSYTSAMMSPIMNEVMSNDETTDDEKGRLIPDRPPIPHSPRELKRLKREKDQQSESGSKPSTPRPPRFRISMSPPRKPPSEKNDSDSSNRKYEMRVEKSPKKPKKSDND
modifications: N-glycans at N225 and N748
notes: TMC-2, C. elegans, endogenous tmc-2 gene (Wormbase B0416.1a); tag inserted prior to the stop codon; residues M1 to D1203 named; modelled 89-471, 583-813; A 3C (PreScission) site lies between mVenus and 3xFLAG; The complex was captured on anti-FLAG resin by the 3xFLAG tag, which was cut off on elution with 3C protease before SEC, mass spectrometry and cryo-EM; also called TMC-2-mVenus; …
Question: How did the “stoichiometry N” value turn out when B1 was run?
Answer: Its value is 2.

Reference: paper PMC10895266, “The structure of the Caenorhabditis elegans TMC-2 complex suggests roles of lipid-mediated subunit contacts in mechanosensory transduction” (Proceedings of the National Academy of Sciences of the …, 2024)
